Source: article PMC12755392, “p62 sorts Lupus La and selected microRNAs into breast cancer-derived exosomes”

T1: La 1-408 (full-length Lupus La) (Homo sapiens, UniProt P05455 1-408)
T1 sequence: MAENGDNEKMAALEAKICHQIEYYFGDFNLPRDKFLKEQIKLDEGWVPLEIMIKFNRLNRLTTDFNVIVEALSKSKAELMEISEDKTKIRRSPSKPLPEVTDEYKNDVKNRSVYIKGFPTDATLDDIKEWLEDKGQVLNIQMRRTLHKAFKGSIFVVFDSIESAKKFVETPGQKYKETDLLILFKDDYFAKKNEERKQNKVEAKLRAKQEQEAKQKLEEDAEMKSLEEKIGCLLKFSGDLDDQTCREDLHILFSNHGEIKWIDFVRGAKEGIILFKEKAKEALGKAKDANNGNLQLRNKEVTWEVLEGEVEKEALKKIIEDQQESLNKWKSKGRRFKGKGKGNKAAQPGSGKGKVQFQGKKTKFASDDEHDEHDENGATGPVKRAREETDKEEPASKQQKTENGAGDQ


Molecular target: T1, La 1-408 (full-length Lupus La)
Assay: EMSA; EMSA: 1 nM miRNA, 25 mM Tris-HCl pH 8.0, 100 mM KCl, 1.5 mM MgCl2, 1 mM DTT, 0.05% NP-40, 5% glycerol, 50 ug/ml heparin, 1 U/ul RiboLock; 30 C 30 min then 4 C 10 min; Hill fit
Conditions: protein: recombinant; tags: C-terminal Nluc-FLAG-His6; label: 5' IRD800; single strand

Row | Binder | Kd [nM]
1 | UGAUAUGUUUGAUAUAUUAGGU (ssRNA) [miR-190] | 1150
2 | UGGAGUGUGACAAUGGUGUUUG (ssRNA) [miR-122 (hsa-miR-122-5p?)] | 14.1
